This series is described as follows: soluble on expression in E. coli; label from the status in PepcDB or PDB records.
As for “MNMPLMIDLTNKNVVIVGGGVVASRRAQTLNQYVEHMTVISPTITEKLQNMVDNGVVIWKEKEFEPSDIVDAYLVIAATNEPRVNEAVKKALPEHALFNNVGDASNGNVVFPSALHRDKLTISVSTDGASPKLTKSIMAELEALYPPSYSSYIDFLYTCRQKIKVLDITYNEKQQLLSQIVSQEYLNHDKQAQFLAWLDVR”, the “soluble on expression in E. coli” value is “not soluble”.

Regarding “MASYKKERLENDIIRLINRTVIHEIYNETVKTGHVTHVKLSDDLLHVTVYLDCYNREQIDRVVGAFNQAKGVFSRVLAHNLYLAKAVQIHFVKDKAIDNAMRIESIINSLKKSKPN”, the “soluble on expression in E. coli” value is recorded as “soluble”. As to “MITVLRINHRPYRDKRITTHVALTARAFGASAILVDERDETLENTIRGVISNFGGSFSIKTGCNWIQEFKHFQGIRVHLTMYGRRINDVIDEIRNSGKDVMVLVGSEKVPIEAYEIADYNVSVTNQPISEVSALAIFLDRYFQGKEFEFEFRGRINVQPAERGKIVKIIPDEIECLDLLKKYGASEQLIEHVKAVEGLALKIAERCNADKRVIVAGSLLHDIGRTRTNGIDHAVAGAEILRSENIHDSVVSAVERHIGAGITREEAARLGLPEKDYVPETLEEMIVAQADNLFAGNKRLRLEEVLNIYRKRGLDSAAERIKELHRRISAIAGIDIDEIRLEHHHHHH”, the “soluble on expression in E. coli” value was “soluble”. In the case of “MSLDWDSVHVPGPHAMTIQELVDYVNARQKQGIYEEYEDIRRENPVGTFHCSMSPGNLEKNRYGDVPCLDQTRVKLTKRSGHTQTDYINASFMDGYKQKNAYIGTQGPLENTYRDFWLMVWEQKVLVIVMTTRFEEGGRRKCGQYWPLEKDSRIRFGFLTVTNLGVENMNHYKKTTLEIHNTEERQKRQVTHFQFLSWPDYGVPSSAASLIDFLRVVRNQQSLAVSNMGARSKGQCPEPPIVVHCSAGIGRTGTFCSLDICLAQLEELGTLNVFQTVSRMRTQRAFSIQTPEQYYFCYKAILEFAEKEGMVSSGQNLLAVESQEGHHHHHH”, the “soluble on expression in E. coli” value is “soluble”. In the case of “MSLRTEFGRLQEHPIVDFKRGKEVTIYLNGKPVKAYEGETVAAALYAAGVRVFSRSFRWHRPRGFFCAIGKCSACMMEVDGIPNVRTCKVYVRDGMQVRTQSGMPDAEKDVFSILDDVIDKVFPHGSHYTKFTTSKKAREFMVKRMRKFTGFGNPPKAVFQGRAELEEIETDVLVIGGGPGGMSAAINAGKYGAKVLLVDENPFLGGQLVKQTHRFFGSAKERAGTRGIKIAGILEEELNSIENVEVRRETRVFGIYNGEAGAYQRLNDDEGKLLRIKAKKIVVATGAYERTLIFENNDLPGVYGAGGVQTLMNVYGIKPGNMGLIVGSGNVGLILTYQLMQAGVNVAAIVEAMPRIGGYFVHAAKVRRLGVPIYVRHTILKAIGRKSVEGAVIAQLDDRWQPIPGTEKEIKCDFICVAVGLSPTHELLYQAGCEMKFVPELGGIVPLRTRFNETSVKGLYVAGDVAGIEEATAAIMEGRIAGIHAAVTLGYGGEEAKKELDEAVKEIEEFRAGPFGERIVCGLEKCTLESEGHHHHHH”, the “soluble on expression in E. coli” value is given as “not soluble”. With “MKLRSWEFYDRIARAYDSMYETPKWKLYHRLIGSFLEEYLKNPCRVLDLGGGTGKWSLFLQERGFEVVLVDPSKEMLEVAREKGVKNVVEAKAEDLPFPSGAFEAVLALGDVLSYVENKDKAFSEIRRVLVPDGLLIATVDNFYTFLQQMIEKDAWDQITRFLKTQTTSVGTTLFSFNSYAFKPEDLDSLEGFETVDIRGIGVMEYPDERISEREETIFRLEQELSRDRNIIWKADHIFFVLKKKRGA”, the “soluble on expression in E. coli” value is “not soluble”. As for “MKSKYEPLFDKVELPNGVELRNRFVLAPLTHISSNDDGTISDVELPYIEKRSQDVGITINAASNVSDVGKAFPGQPSIAHDSNIEGLKRLATAMKKNGAKALVQIHHGGAQALPELTPDGDVVAPSPISLKSFGQKQEHSAREMTNEEIEQAIKDFGEATRRAIEAGFDGVEIHGANHYLIHQFVSPYYNRRNDVWANQYKFPVAVIEEVLKAKEAYGNKDFIVGYRLSPEEAESPGITMEITEELVNKISHMPIDYIHVSMMDTHATTREGKYAGQERLPLIHKWINGRMPLIGIGSIFTADEALDAVENVGVDLVAIGRELLLDYQFVEKIKDGREDEIINYFDPEREDNHHLTPNLWHQFNEGFYPLPRKDK”, the “soluble on expression in E. coli” value is listed as “not soluble”. As to “MAKKLSKKGDIQRDHFALISSFPLNQTPETKSEKLQKNLLLHKYYQGHRERLRRRYLKSKGNAIEDYEYLELLLFRTIPRANTKPIAKSLIAHFGSLADVLGADIHRLQEVQGCGPATALDLKIISDVAGRLARAQLFKRDIFSSWDQVLAYCKAVMAHETREQFRVLFLDKKNGLLADEVQQTGTIDHTPVYPREVISRALQLSASGLILVHNHPSGDATPSKADVTMTYRLKDAANALGITVHDHLIIARNNYTSFKELKFI”, the “soluble on expression in E. coli” value is “not soluble”. With “MAGDPMSLPGLSAAADQTIKIGAQSMSESEIIASMLGQLIEHHTDLKTTTIKNLGSNAVQQQALMNGEIDIAATRYTGDALTGTLRMEPEKDPDKALALTQREFKKRYDLKWYDSYGFDNTYAFTVSKELADQYHLETVSDVKKWAPQLKLGVDNYWMKLKGNGYQDFTKTYGMTFGGTYPMQIGLVYDAVKSGKMDIVLAYSTDGRIKSYGLKMLKDDKQFFPPYDCSPVVPEKVLKEHPELEGIIKKMLGKIDTATMQELNYEVDGNLKEPSVVAKEYLEKHRYFESLEHHHHHH”, the “soluble on expression in E. coli” value is reported as “soluble”. The value for “MGSDKIHHHHHHMAYSDTPEQSAVINWKGRHLVVNAFAGTGKTTTLVRYAQANPDRRMLYLAYNRAVRDDAERKFPFNVECKTSHQLAWMKFGKHLKPRLTPNLRITDVARKLNTRHWPLVRMALAALNHFLCSASPALSYEHLPDENNREGLDAGNILGAAQFLWNEMSRIDSTFPVTHDTYLKLFQLSVPDLSKRWDTILFDEAQDANPVISSLVLTQNCNVVLVGDRHQQIYRFRGADNALNAPVLEGADRLWLTQSFRFGSAVAEMANVLLARQEETHPVIGNGGDDDVIDRLPADVSRYTILSRTVAGVIGAALYESMKEKIVYWVGGIEGYKTEELEDLYWFSVDMPERMRTPRLSREYRDFEEYKSMTKATGDVEMNQAIGLLDKYFPLPQKLQVLRSQATTNEKDADVVVSTAHRSKGLEWDTVMLNDDFSDITDPLLSEAARTDETNLLYVATTRARKLLVRNELLKLLCEQEESDDIAEDQFTDSNLI” was “not soluble”; that for “MSYYLVQSTDEDILKHAECGGAVTAFFKYLLDKKLVDGVLALKKGEDVYDGLPYLVNDSKELVETCGSLHCAPTMFGNMISKHLKDMNLAVSVKPCDAMAIVELEKRHQIDKDKLYTIGLNCGGTVPPQTAKKMIELFYDVDPEDVIKEEIDKGKFIIELKDGSEKSVKIDELEEEGYGRRTNCQRCELKVPRNSDLACGNWGTEKGWTFVEVGSEKGEELLKNAQKEGYINVKAPSEKALEIRGKIEKSMINLGKKFQKEQLDEKYPEPEKWDEYWSRCIKCYGCRDVCPICFCKECALGEDYLDKGTIPPDPIMFQGIRLSHMSFSCINCGQCEDVCPVEIPLAKIYHRAQLKIRETTGFVPGIDDSMPFLYKLEHHHHHH” was “not soluble”; that for “MAYNSNSNNNNNNIVVVFDFDKTIIDVDSDNWVIDELGFTDLFNQLLPTMPWNTLMDRMMKELHDQGKTIEEIKQVLRTIPIHPRVVPAIKSAHDLGCELRIVSDANMFFIETIVEHLGISELFSEINSNPGYVDERGTLKISPYHDFTKSPHSCSCGTCPPNMCKGLIIERIQQSLAKEGKKKMIYLGDGAGDYCPSLKLNTEDYVMPRKNFPVWDLISQNPMLIKAAIREWTDGQSMEMILIGTIEEIRLEEEKEKMLTSAENNCKMQTISIGINNVHHEPILPRALRVSQSS” was “soluble”.

Turning to “MGSDKIHHHHHHMSPLAYSVANVNLESSHPTGALSVNLLSGRDVRRWDDFVSCCREATFFHRAGWQTVIERAFGHKTWFLYAECEGEIQGVLPLAEINSRLFGHSLSSLPFCVYGGIAADSQTVRDALDRSAQKLAQELQVDYLEYRNLKPHHADWHGKDLYVTFRKEIASEIEQNMSAIPRKQRAMVRKGIKAGLESVVDQDIERFFSAYSASVHRLGTPVFSRKYFRLLKEVFAEDCELMIIVKDNRTISAVMSFYFRDEVLPYYGGGTGEAREVAGNDFMYWELMRRACEKGCKVFDFGRSKRGSGSFDFKKNWGFEPQPLHYEYQLHQAKEVPDHNPLNPRYQIFIKAWQKLPLGLANLVGPHIVRNLG”, the “soluble on expression in E. coli” value was “not soluble”.

The values are drawn from the DeepSol protein solubility set.
